# Data from the supplement of paper PMC10567573.
# B1: NET1 (parent)
# chain: RVRPLARVTSLANLISPVRNGAVR
# Variants of: B1
# Assay: protein stability index of a GFP-peptide fusion (GPS, HEK-293T) (PSI 1-6); higher = more stable
# Details: c terminus: a fixed tail appended
# 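Further: lentivirally expressed fusions sorted by FACS into six bins by GFP to DsRed ratio, PSI derived from sequencing read proportions per bin multiplied by bin number.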
row,Variant,protein stability index
1,RVRPLARVTSLANLISLVRNGAVR [P17L],2.03
2,RVRPLARVTSLANLISNVRNGAVR [P17N],2.81
3,RVRPLARVTSLANLISIVRNGAVR [P17I],2.24
4,RVRPLARVTSLANLISWVRNGAVR [P17W],1.89
5,RVRPLARVTSLANLISGVRNGAVR [P17G],2.14
6,RVRPLARVTSLANLISTVRNGAVR [P17T],2.8
7,RVRPLARVTSLANLISQVRNGAVR [P17Q],2.29
8,RVRPLARVTSLANLISSVRNGAVR [P17S],3.45
9,RVRPLARVTSLANLISRVRNGAVR [P17R],2.24
10,RVRPLARVTSLANLISFVRNGAVR [P17F],1.56
11,RVRPLARVTSLANLISHVRNGAVR [P17H],2.15
12,RVRPLARVTSLANLISDVRNGAVR [P17D],3.03
13,RVRPLARVTSLANLISVVRNGAVR [P17V],3.16
14,RVRPLARVTSLANLISMVRNGAVR [P17M],2.17
15,RVRPLARVTSLANLISEVRNGAVR [P17E],2.4
16,RVRPLARVTSLANLISCVRNGAVR [P17C],3.96
17,RVRPLARVTSLANLISYVRNGAVR [P17Y],2.07
18,RVRPLARVTSLANLISAVRNGAVR [P17A],2.1
19,RVRPLARVTSLANLISKVRNGAVR [P17K],3.09
20,RVRPLARSTSLANLISPVRNGAVR [V8S],3.99
21,RVRPLARWTSLANLISPVRNGAVR [V8W],3.05
22,RVRPLARTTSLANLISPVRNGAVR [V8T],3.76
23,RVRPLARRTSLANLISPVRNGAVR [V8R],2.92
24,RVRPLARYTSLANLISPVRNGAVR [V8Y],2.38

row,Variant,protein stability index
1,RVRPLARVTSLANPISPVRNGAVR [L14P],3.76
2,RVRPLARVTSLANAISPVRNGAVR [L14A],3.15
3,RVRPLARVTSLANCISPVRNGAVR [L14C],1.66
4,RVRPLARVTSLANKISPVRNGAVR [L14K],3.35
5,RVRPLARVTSLANEISPVRNGAVR [L14E],3.16
6,RVRPLARVTSLANSISPVRNGAVR [L14S],3.15
7,RVRPLARVTSLANYISPVRNGAVR [L14Y],3.17
8,RVRPLARVTSLANQISPVRNGAVR [L14Q],3.02
9,RVRPLARVTSLANTISPVRNGAVR [L14T],3.67
10,RVRPLARVTSLANVISPVRNGAVR [L14V],2.72
11,RVRPLARVTSLANDISPVRNGAVR [L14D],4.39
12,RVRPLARVTSLANNISPVRNGAVR [L14N],3.84
13,RVRPLARVTSLANMISPVRNGAVR [L14M],2.61
14,RVRPLARVTSLANGISPVRNGAVR [L14G],3.24
15,RVRPLARVTSLANWISPVRNGAVR [L14W],4.15
16,RVRPLARVTSLANFISPVRNGAVR [L14F],2.65
17,RVRPLARVTSLANIISPVRNGAVR [L14I],3.03
18,RVRPLARVTSLANRISPVRNGAVR [L14R],3.34
19,RVRPLARVTSLANHISPVRNGAVR [L14H],3.63
20,RVRPLARVTSLANLIHPVRNGAVR [S16H],2.83
21,RVRPLARVTSLANLINPVRNGAVR [S16N],3.23
22,RVRPLARVTSLANLIPPVRNGAVR [S16P],3.32
23,RVRPLARVTSLANLIYPVRNGAVR [S16Y],2.66
24,RVRPLARVTSLANLIIPVRNGAVR [S16I],2.44

row,Variant,protein stability index
1,RVRPLARVTSLANLIRPVRNGAVR [S16R],3.03
2,RVRPLARVTSLANLIMPVRNGAVR [S16M],2.31
3,RVRPLARVTSLANLILPVRNGAVR [S16L],2.49
4,RVRPLARVTSLANLITPVRNGAVR [S16T],3.56
5,RVRPLARVTSLANLIAPVRNGAVR [S16A],3.46
6,RVRPLARVTSLANLIQPVRNGAVR [S16Q],3.76
7,RVRPLARVTSLANLIGPVRNGAVR [S16G],3.14
8,RVRPLARVTSLANLIEPVRNGAVR [S16E],3.15
9,RVRPLARVTSLANLICPVRNGAVR [S16C],1.25
10,RVRPLARVTSLANLIDPVRNGAVR [S16D],2.86
11,RVRPLARVTSLANLIFPVRNGAVR [S16F],2.21
12,RVRPLARVTSLANLIWPVRNGAVR [S16W],2.55
13,RVRPLARVTSLANLIKPVRNGAVR [S16K],2.88
14,RVRPLARVTSLANLIVPVRNGAVR [S16V],2.99
15,RVRPLARVTSLTNLISPVRNGAVR [A12T],3.89
16,RVRPLARVTSLWNLISPVRNGAVR [A12W],1.83
17,RVRPLARVTSLSNLISPVRNGAVR [A12S],3.49
18,RVRPLARVTSLNNLISPVRNGAVR [A12N],2.79
19,RVRPLARVTSLMNLISPVRNGAVR [A12M],2.42
20,RVRPLARVTSLHNLISPVRNGAVR [A12H],3.27
21,RVRPLARVTSLQNLISPVRNGAVR [A12Q],3.71
22,RVRPLARVTSLDNLISPVRNGAVR [A12D],3.93
23,RVRPLARVTSLKNLISPVRNGAVR [A12K],2.94
24,RVRPLARVTSLFNLISPVRNGAVR [A12F],2.14

row,Variant,protein stability index
1,RVRPLARVTSLCNLISPVRNGAVR [A12C],2.66
2,RVRPLARVTSLENLISPVRNGAVR [A12E],3.91
3,RVRPLARVTSLPNLISPVRNGAVR [A12P],4.28
4,RVRPLARVTSLVNLISPVRNGAVR [A12V],2.89
5,RVRPLARVTSLYNLISPVRNGAVR [A12Y],2.52
6,RVRPLARVTSLLNLISPVRNGAVR [A12L],2.77
7,RVRPLARVTSLRNLISPVRNGAVR [A12R],2.64
8,RVRPLARVTSLINLISPVRNGAVR [A12I],2.58
9,RVRPLARVTSLANLISPHRNGAVR [V18H],2.75
10,RVRPLARVTSLANLISPFRNGAVR [V18F],2.29
11,RVRPLARVTSLANLISPPRNGAVR [V18P],3.12
12,RVRPLARVTSLANLISPQRNGAVR [V18Q],3.63
13,RVRPLARVTSLANLISPGRNGAVR [V18G],3.49
14,RVRPLARVTSLANLISPCRNGAVR [V18C],2.21
15,RVRPLARVTSLANLISPLRNGAVR [V18L],2.94
16,RVRPLARVTSLANLISPKRNGAVR [V18K],2.31
17,RVRPLARVTSLANLISPERNGAVR [V18E],3.63
18,RVRPLARVTSLANLISPIRNGAVR [V18I],2.83
19,RVRPLARVTSLANLISPNRNGAVR [V18N],3.2
20,RVRPLARVTSLANLISPMRNGAVR [V18M],3.07
21,RVRPLARVTSLANLISPARNGAVR [V18A],3.03
22,RVRPLARVTSLANLISPDRNGAVR [V18D],4.03
